What all share (test): SEC-MALS
For orientation: SEC sorts molecules by how far they enter the pores of the column.

For assay [1], the target named is His-tagged N. castellii Kar9 N-terminal domain, wild type (NcKar9N-αβγ) (Naumovozyma castellii).
Assay [2] concerns the target His-tagged NcKar9N-αβ• (γ-interface mutant, Tyr363Ala/Arg364Ala) (Naumovozyma castellii).
Assay [3] shares this target. The source holds these as a separate data set.
In assay [4] the target is His-tagged NcKar9N-α•γ (β-interface mutant, Arg233Ala/Ile237Ala) (Naumovozyma castellii).
Assay [5] has the same target. The source holds these as a separate data set.

Like-named read-outs stand apart in the source and are kept apart here. Bounds are passed on as bounds.

In general, stoichiometry N refers to a count of units in the complex or per binding partner. As for “His-tagged N. castellii Kar9 N-terminal domain, wild type (NcKar9N-αβγ) (domain or fragment)”, the stoichiometry N in assay [1] came out at 2.
Consider “His-tagged NcKar9N-αβ• (γ-interface mutant, Tyr363Ala/Arg364Ala) (domain or fragment)”, for which the stoichiometry N in assay [2] and in assay [3] was less than 4 each time.
On to “His-tagged NcKar9N-α•γ (β-interface mutant, Arg233Ala/Ile237Ala) (domain or fragment)”, for which the stoichiometry N in assay [4] and in assay [5] was 2 throughout.

The values above are taken from doi:10.1101/2021.09.13.460064.
